Tests used:
[1] = target: fl-16E7 (human papillomavirus type 16) (UniProt P03129); test: fluorescence polarisation; direct: 1.5-fold dilution series of MBP-E6 (or MBP) against fixed fl-E7 (350 nM HPV16, 200 nM HPV31) or 350 nM fl-16E7CR1/2; 20 mM Hepes pH 7.5, 200 mM NaCl, 1 mM TCEP, 0.005% Tween-20; one-site-specific binding fit
[2] = target: fl-16E7CR1/2 (aa 1–44) (human papillomavirus type 16) (UniProt P03129); test: as above
[3] = target: fl-16E7 (human papillomavirus type 16) (UniProt P03129); test: AUC; sedimentation equilibrium, 12,000 or 18,000 rpm, 20 °C, 20 mM Hepes pH 7.5, 200 mM NaCl, 1 mM TCEP; 100 μM MBP-16E6_4C4S-LxxLL, 100 μM fl-16E7, 100 μM complex (1:1 molar mixture)
[4] = target: fl-16E7 (human papillomavirus type 16) (UniProt P03129); test: AUC; sedimentation velocity, 40,000 rpm, 20 °C, 20 mM Hepes pH 7.5, 200 mM NaCl, 1 mM TCEP; fl-16E7 followed at 495 nm; 1:1 molar mixture and titration of MBP-16E6_4C4S-LxxLL (0-150 μM) against 100 μM fl-16E7
[5] = target: fl-31E7 (human papillomavirus type 31) (UniProt P17387); test: fluorescence polarisation; direct: 1.5-fold dilution series of MBP-E6 (or MBP) against fixed fl-E7 (350 nM HPV16, 200 nM HPV31) or 350 nM fl-16E7CR1/2; 20 mM Hepes pH 7.5, 200 mM NaCl, 1 mM TCEP, 0.005% Tween-20; one-site-specific binding fit
[6] = target: MBP-16E6_4C4S (human papillomavirus type 16); test: fluorescence polarisation; competition: nonlabeled 16E7CR1/2 (aa 1-44) against the complex of 200 μM MBP-16E6_4C4S and 350 nM fl-16E7CR1/2 (60% saturation)
[7] = target: MBP-16E6_4C4S (human papillomavirus type 16); test: fluorescence polarisation; competition: nonlabeled 16E7CR1/2 against the fl-16E7/MBP-16E6_4C4S complex (Fig. S5)
[8] = target: MBP-16E6_4C4S (human papillomavirus type 16); test: fluorescence polarisation; competition: unlabeled GGG-E7 dimer (two-fold dilutions, from 200 μM HPV16, from 150 μM HPV31) against the preformed complex of fl-E7 with 50 μM MBP-16E6_4C4S or 70 μM MBP-31E6_2C2S-LxxLL (60-80% saturation); FP assay buffer; one-site-specific binding fit
[9] = target: MBP-31E6_2C2S-LxxLL (human papillomavirus type 31 | not stated) (UniProt P17386); test: as above
EYFP-16E7 = target: T1, EYFP-16E7 (human papillomavirus type 16, UniProt P03129 1-98); test: FRET or BRET; flow cytometry-based FRET (FACS-FRET) in C33A cells coexpressing mTagBFP2-E6 and EYFP-E7 of the same HPV type; at least 10% FRET and at least 500 FRET-positive cells count as an interaction; three biological replicates; settings: partners not purified
T1 construct: Cloned in pEYFP-C1; SG linker between EYFP and E7; also called EYFP-E7 (HPV16); HPV 16E7; source: C33A, transfected, in cells; not shown: EYFP, N-terminal, kept
T1 sequence (looked up): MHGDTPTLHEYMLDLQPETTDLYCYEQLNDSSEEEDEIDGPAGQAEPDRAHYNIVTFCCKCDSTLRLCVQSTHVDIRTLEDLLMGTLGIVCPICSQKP

EYFP-31E7 = target: T2, EYFP-31E7 (human papillomavirus type 31, UniProt P17387 1-98); test: as above; settings: partners not purified
T2 construct: Cloned in pEYFP-C1; SG linker between EYFP and E7; also called EYFP-E7 (HPV31); HPV 31E7; source: C33A, transfected, in cells; not shown: EYFP, N-terminal, kept
T2 sequence: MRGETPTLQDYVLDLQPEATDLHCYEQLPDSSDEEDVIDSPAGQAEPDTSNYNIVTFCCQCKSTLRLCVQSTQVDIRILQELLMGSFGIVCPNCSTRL

EYFP-38E7 = target: T3, EYFP-38E7 (human papillomavirus type 38, UniProt Q80908 1-100); test: as above; settings: partners not purified
T3 construct: Cloned in pEYFP-C1; SG linker between EYFP and E7; also called EYFP-E7 (HPV38); HPV 38E7; source: C33A, transfected, in cells; not shown: EYFP, N-terminal, kept
T3 sequence: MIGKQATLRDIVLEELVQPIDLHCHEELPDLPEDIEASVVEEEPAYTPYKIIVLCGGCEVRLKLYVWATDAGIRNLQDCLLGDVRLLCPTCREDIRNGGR

Molecule: MBP-16E6_4C4S (natural protein)
- Kd [1]: 3 µM
- Kd [2]: 101 µM

Molecule: MBP-16E6_4C4S-LxxLL
- stoichiometry N (E6 per E7 (2:2 complex)) [3]: 1
- Kd [1]: 46.4 µM
- percent of fl-16E7 in complex [4]: 89%

Molecule: MBP-31E6_2C2S-LxxLL (from UniProt P17386 1-149)
- Kd [5]: 59.4 µM

Molecule: fl-16E7 (from UniProt P03129 1-98) (natural protein)
- stoichiometry N [3]: 2

Molecule: nonlabeled 16E7CR1/2 (aa 1–44) (from UniProt P03129 1-44) (peptide)
- Kd [6]: 128 µM
- Kd [7]: 288 µM

Molecule: unlabeled GGG-16E7 dimer (from UniProt P03129 1-98) (natural protein)
- Kd [8]: 61.9 µM

B1: unlabeled GGG-31E7 dimer (natural protein)
chain: GGGMRGETPTLQDYVLDLQPEATDLHCYEQLPDSSDEEDVIDSPAGQAEPDTSNYNIVTFCCQCKSTLRLCVQSTQVDIRILQELLMGSFGIVCPNCSTRL
- Kd [9]: 54.2 µM

B2: mTagBFP2-16E6 (natural protein, human papillomavirus type 16, UniProt P03126 1-158, looked up)
chain: MHQKRTAMFQDPQERPRKLPQLCTELQTTIHDIILECVYCKQQLLRREVYDFAFRDLCIVYRDGNPYAVCDKCLKFYSKISEYRHYCYSLYGTTLEQQYNKPLCDLLIRCINCQKPLCPEEKQRHLDKKQRFHNIRGRWTGRCMSCCRSSRTRRETQL
notes: Cloned in pmTagBFP-C1; SG linker between the fluorescent protein and the viral protein; also called mTagBFP2-E6 (HPV16); HPV 16E6; source: C33A, transfected, in cells; not shown: mTagBFP2, N-terminal, kept
- percent FRET (EYFP-16E7): 13%

B3: mTagBFP2-31E6 (natural protein)
chain: MFKNPAERPRKLHELSSALEIPYDELRLNCVYCKGQLTETEVLDFAFTDLTIVYRDDTPHGVCTKCLRFYSKVSEFRWYRYSVYGTTLEKLTNKGICDLLIRCITCQRPLCPEEKQRHLDKKKRFHNIGGRWTGRCIACWRRPRTETQV
notes: Cloned in pmTagBFP-C1; SG linker between the fluorescent protein and the viral protein; also called mTagBFP2-E6 (HPV31); HPV 31E6; source: C33A, transfected, in cells; not shown: mTagBFP2, N-terminal, kept
- percent FRET (EYFP-31E7): 16.3%

B4: mTagBFP2-38E6 (natural protein)
chain: MELPKPQTVQQLSDKLTVPVEDLLLPCRFCNSFLTYIELREFDYKNLQLIWTQEDFVFACCSSCAYASAQYECQQFYELTVFGREIEQVEQQTIGLIVIRCQYCLKCLDLIEKLDICCSHQAFHKVRGNWKGRCRHCKAIE
notes: Cloned in pmTagBFP-C1; SG linker between the fluorescent protein and the viral protein; also called mTagBFP2-E6 (HPV38); HPV 38E6; source: C33A, transfected, in cells; not shown: mTagBFP2, N-terminal, kept
- percent FRET (EYFP-38E7): 17.9%

Source: publication PMC10372912, “Evidence for direct interaction between the oncogenic proteins E6 and E7 of high-risk human papillomavirus (HPV)” (The Journal of Biological Chemistry, 2023)
